Results as given in article PMC3410491.

Legend:
[1] = target: Chara myosin heavy chain (Chara corallina (Chara australis) (endogenous in internodal cells)); experiment: SEC; partially purified Chara myosin on Superdex 200HR in 50 mM Tris-HCl pH 8.0, 2 mM MgCl2, 1 mM EGTA, 4 mM ATP, 1 mM DTT; peak fraction No. 20 concentrated and run on SDS-PAGE, stained with coomassie brilliant blue; molar ratios roughly estimated
[2] = target: Chara myosin heavy chain (Chara corallina (Chara australis) (endogenous in internodal cells))
[3] = target: Chara myosin heavy chain (Chara corallina (Chara australis) (endogenous in internodal cells)); remark: listed apart in the source

Row | stoichiometry N (molar ratio to the heavy chain) [1] | sliding velocity of F-actin on Chara myosin in the in vitro motility assay; increase over the standard buffer on adding 0.1 mM Ca++ and 0.1 mg/ml calmodulin; reversible on washing out [2] [%] | sliding velocity of F-actin on Chara myosin in the in vitro motility assay; increase over the standard buffer on adding 0.1 mg/ml calmodulin [2] [%] | actin activated ATPase of column purified Chara myosin; increase on adding both Ca++ and calmodulin [3] [%] | actin activated ATPase of column purified Chara myosin; increase on adding calmodulin [3] [%] | Substance
1 | 2.5 |  |  |  |  | 18 kDa polypeptide of Chara myosin (natural protein)
2 | 0.7 |  |  |  |  | 20 kDa polypeptide of Chara myosin (natural protein)
3 |  | 35 | 24 | 91 | 24 | bovine calmodulin (from UniProt P62157 1-149) (natural protein)
